Laboratory results reported in the supplement of paper PMC9170038.

Test system: K4 kissing-loop RNA reporter
Assay: apparent KD of K4 kissing-loop reporter; higher = weaker reporter binding
Conditions: Eterna round: R107
Experimental: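 RNA-MaP round R107: designed RNA switches with theophylline, tryptophan, arginine or FMN aptamers are transcribed on-chip within common flanks. They are titrated with a labelled K4 kissing-loop RNA reporter in RNA-MaP buffer (100 mM Tris pH 7.5, 80 mM KCl, 4 mM MgCl2), without ligand or with the indicated ligand. Median apparent KD per design.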

[1] = input ligand: theophylline 20 uM
[2] = input ligand: tryptophan 2.4 mM
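Also: bound reporter read as fluorescence of individual clusters on recovered sequencing chips by microscopy, with normalized cluster intensities fitted with a binding model.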

Sequence	apparent KD of K4 kissing-loop reporter (input ligand: FMN 200 uM)	apparent KD of K4 kissing-loop reporter (input ligand: arginine 13.2 mM)	apparent KD of K4 kissing-loop reporter (input ligand: none)	apparent KD of K4 kissing-loop reporter [1]	apparent KD of K4 kissing-loop reporter [2]
AAGUCUCGUUAAUUCGUGGUUUCGAUCGAUACCAGUAGCGAGAGUUACCCUUGGCAGCGAAAUGAGUGAUGUUCAUGAAAGAAGA [KL-XTheoA10]	65.1 nM	101 nM	64.6 nM	107 nM	60 nM
GCCGUACGCAUGGAUACCAGAUGGCACUAUAAUCUACCAGAGUGAUGUUCUGGCCUGCCCAUCCCUUGGCAGCCAUGCGUACGGC	293 nM	199 nM	287 nM	171 nM	206 nM
AACCACUCGUUACAUCACUAUCGAGUGGAACGAGGACCGGUACGGCCGCCACUCGAUUAGAUGCAGUGAUGUUGCAUCUUAGAAU [KL-SSTryp-A (BrourdMod)3 #dotplot2 strengthened]	195 nM	163 nM	165 nM	176 nM	133 nM
AAUAAAAUCACGGCCGCCACUGAUUUUUUUAUUAGGAGUGAUGUUCCUAUGACUAUAUUAUUUAACAGGACCGGGUGAAUAUUUA [JR_SSTryptoB_Sub023]	79.6 nM	97.5 nM	87.4 nM	93.3 nM	74.5 nM
UGGACCAGGAGUGAUGUUCCAAAAUGUGAUACCAGCCACGAAAGUGGCCCUUGGCAGCACUGCCAGGACGAAAACGUCCGGUCCU [#SwitchBubble 11 #StaticStem #K4Early]	285 nM	191 nM	278 nM	268 nM	154 nM
UGUAUGUGAUGUGAUACCAGUGAAGAGCCAGUGAUGUUGGUAGAACUGGUAUAUAAAUAACACCCUUGGCAGCACAGUCACGUAC [whbob_Ex_Theo_B_sa100]	305 nM	241 nM	297 nM	279 nM	242 nM
UAUAAUUCGGCGGCCGCCACUGACCAUAGCCUUCGAUGGCCAGUGAUGUUGGCCUCUGGCUCUAACAGGACCGGGCCGAAUUGCG [Aririmaus]	228 nM	179 nM	260 nM	277 nM	135 nM
GGAUUCACCAGUGAUGUUGGAGAAAACUCGAAGGAUAUGACGAAAGUCAGAAGGUCGUAGACUGGACAAAGUCCGGUCGGAUCCA [KL-SSFMN-A22]	419 nM	250 nM	299 nM	359 nM	279 nM
CCCUAAAUAUGCAGUGAUGUUGCAACUGAUACCAGUAUCGAAAGAUACCCUUGGCAGCGGAAAACCGCUACGUAAUUUAAUAGGG [Ex Theophylline A K4 20]	294 nM	393 nM	387 nM	402 nM	285 nM
AGUCGAGAUUAUAGACUCGACAGGUCAGAAGGAGCGACGAAUUCGUCAGGUAGGUCGCUGACAUAGCAGUGAUGUUGCUAUACGG [Arg A SS t1]	149 nM	132 nM	150 nM	163 nM	126 nM
UAACGCCACUAAGAUACCAGACAUACAGAUCGGAUCUCCUAAAGAGAGUGAUGUUCUCUAGUCCCUUGGCAGCUUCUGGACUCCC [theeternabot_sameState_KL_Theo_B_9]	296 nM	356 nM	406 nM	396 nM	291 nM
UUAGGAGUGGGAGGAUAUCCUGGUGUGGGUGAUGUUAGUGAUGUUGAAAGUGUAGUGAUGUUGUGCGGAGAAGGUCCAGUGUUGA [BDazzled - #10 - Exc. FMN B]	504 nM	295 nM	459 nM	646 nM	292 nM
AGGCGGCAUGAUUGACUGAAAAGAAAUCAACGAGGACCGGUACGGCCGCCACUCGAACACCAGUGAUGUUGGUAUGGGAUAACCC [Exclusion Tryptophan A GF 19]	178 nM	188 nM	184 nM	173 nM	159 nM
UGAUACCAGACGGCCGCCACUGCACCAGUCAAUGACUGAGCGCGGUGGCGCUCAGUGAUGUUGAGCAGGACCGGGUCUGGUAUCU [Mod of Eli's TrypBX 8 v4]	147 nM	117 nM	136 nM	145 nM	93.9 nM
